According to patent US20120149881A1 (Genentech, published 2012):
Several values for one entry are separate records, joined by “and”; a condition that tells them apart may be missing. Identical values can stand only once.

T1: cyno IgE/M1′ expressed on transduced Daudi cells (human IgE/primate M1′ cassette, cynomolgus) (cynomolgus monkey)
T1 construct: The construct is described as a 'human IgE/primate M1′ cassette'; also called Cyno M1′
T1 chain: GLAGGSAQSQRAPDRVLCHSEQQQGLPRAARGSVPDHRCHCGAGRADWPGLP

T2: rhesus IgE/M1′ expressed on transduced Daudi cells (human IgE/primate M1′ cassette, rhesus) (rhesus monkey)
T2 construct: The construct is described as a 'human IgE/primate M1′ cassette'; also called Rhesus M1′
T2 chain: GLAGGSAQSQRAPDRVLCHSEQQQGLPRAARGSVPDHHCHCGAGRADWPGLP

T3: M1′ peptide 4 (human)
T3 peptide: SAQSQRAPDRVLCHS

T4: M1' peptide 13
T4 construct: see f1
T4 peptide: PPELDVCVEEAEGEA

T5: M1' peptide 15
T5 construct: see f1
T5 peptide: AEGEAPWTWTGLCIF

T6: M1' peptide 2
T6 construct: see f1
T6 peptide: TVQRAVSVNPGLAGG

T7: M1′ peptide 7 (human)
T7 peptide: GQQQGLPRAAGGSVP

T8: M1' peptide 11
T8 construct: see f1
T8 peptide: CGAGRADWPGPPELD

T9: M1' peptide 14
T9 construct: see f1
T9 peptide: VCVEEAEGEAPWTWT

T10: M1′ peptide 5 (human)
T10 peptide: RAPDRVLCHSGQQQG

T11: M1' peptide 6
T11 construct: see f1
T11 peptide: VLCHSGQQQGLPRAA

T12: M1' peptide 12
T12 construct: see f1
T12 peptide: ADWPGPPELDVCVEE

T13: M1' peptide 1
T13 peptide: ASPSQTVQRAVSVNP

T14: M1' peptide 9
T14 construct: see f1
T14 peptide: GGSVPHPRCHCGAGR

T15: M1′ peptide 8 (human)
T15 peptide: PRAAGGSVPHPRCH

T16: M1' peptide 10
T16 construct: see f1
T16 peptide: HPRCHCGAGRADWPG

T17: M1' peptide 3
T17 construct: see f1
T17 peptide: GLAGGSAQSQRAPDR


Key:
[1] = target: T18, human IgE with the M1′ sequence (long form of membrane IgE) expressed on transduced BJAB or Daudi cells (human, UniProt P01854 116-546); assay: Scatchard analysis on cells expressing human IgE/M1′
T18 construct: Full-length heavy and light chains of the U266 IgE B cell receptor, retrovirally expressed; also called IgE/M1′; IgE-M1′
Protocol: (§1) The BJAB or Daudi cells expressing various forms of IgE with or without M1′ (Human, Rhesus, Cyno) were prepared for binding in cold Binding buffer composed of base media, with 10 mM HEPES pH 7.4, and 2% FBS as well as 40 ug/ml human IgG. Cells are diluted to concentration of 1.7×10⁶ cells/ml, and kept on ice until they are added to the assay. The proteins/antibodies are iodinated with the Iodogen method. Various concentrations of cold protein are prepared in triplicate, using a 1:2 dilution starting with the saturation concentration and ending at a concentration of zero, with a total of 14 concentrations. Hot protein of a single concentration is added to all dilutions compete with the cold protein. Lastly the cells are added to the hot and cold protein mixture, 250,000 cells per sample were used. Assay is kept at 4° C. for 4 hours, shaking. Each sample is then collected and filtered on membrane, washed at least 3 times with binding buffer, allowed to dry and then counted for 1 minute using Perkin Elmer Wizard 1470 Auto Gamma Counter.

[2] = target: T18, human IgE with the M1′ sequence (long …); assay: number printed in the titration panel; FIG. 3M calls these numbers 'Scatchard Results' (BJAB-Long cells)
Protocol: (§2) In addition to relative affinity determinations by antibody titration and FACs detection, we also determined affinities of selected anti-MP antibodies to BJAB cell lines expressing IgE long form using Scatchard analysis. BJAB-Long cells were prepared for binding in cold Binding buffer composed of base media, with 10 mM HEPES pH 7.4, and 2% FBS as well as 40 μg/ml human IgG. Cells were diluted to a concentration of 1.7×10⁶ cells/ml, and kept on ice until added to the assay. The antibodies were iodinated with Iodogen method. Various concentrations of unlabelled antibody were prepared in triplicate, using a 1:2 dilution starting with the saturation concentration and ending at a concentration of zero, with a total of 14 concentrations. Iodinated antibody of a single concentration was added to all dilutions of the competitor unlabelled antibody. Lastly 250,000 BJAB-Long cells were added to each mixture of iodinated and unlabelled antibody. The samples were incubated at 4° C. for 4 hours, shaking. Each sample was then collected and filtered on a membrane, washed at least 3 times with binding buffer, allowed to dry and then measured for 1 minute using a Perkin Elmer Wizard 1470 Auto Gamma Counter.

[3] = target: T1, cyno IgE/M1′ expressed on transduced …; assay: Scatchard analysis on cells expressing cyno IgE/M1′
[4] = target: T18, human IgE with the M1′ sequence (long …); assay: competitive ECL binding on BJAB-IgE/M1′ cells vs biotinylated 26A11 or 47H4, 2nd IC50 column
[5] = target: T18, human IgE with the M1′ sequence (long …); assay: Scatchard Human M1' (nM), column Mean of exp. 3
Protocol: as §1

[6] = target: T2, rhesus IgE/M1′ expressed on transduced …; assay: Scatchard analysis on cells expressing rhesus IgE/M1′
[7] = target: T19, human IgE CH3-CH4-M1′/Fc fusion protein (human); assay: SPR Biacore 2000, IgG immobilized, M1′-Fc analyte
T19 construct: also called M1′ (immobilized)

[8] = target: T18, human IgE with the M1′ sequence (long …); assay: Scatchard Human M1' (nM), overall Mean of three experiments
Protocol: as §1

[9] = target: T18, human IgE with the M1′ sequence (long …); assay: competitive ECL binding on BJAB-IgE/M1′ cells vs biotinylated 26A11 or 47H4, 1st IC50 column
[10] = target: T19, human IgE CH3-CH4-M1′/Fc fusion protein; assay: SPR Biacore 2000, M1′-Fc immobilized
M1′ peptide 4 = target: T3, M1′ peptide 4; assay: ELISA on coated antigen, relative OD450/650
Protocol: (§3) 15 peptides were generated spanning the sequence surrounding and including human M1′ (Clifford Quan) (FIG. 5A). Peptides were resuspended in either dH20 or 50% DMSO. […] 0.05% Tween-20, 10 ppm Proclin., 0.2% BgG, 0.25% Chaps, 5 mM EDTA, 0.35M NaCl]. […] Plates were then incubated for 2 hours at room temperature. Murine antibody plates were washed 3 times and then anti-mouse IgG1-Biotin (BD Biosciences (A85-1) #553441) was added (1:10,000, 100 μl per well) and incubated for 1 hour at RT. Following 3 washes, SA-HRP (BD Biosciences #554066) was added (1:20,000, 100 μl per well) and incubated for 1 hour. Human IgG1 antibody plates were washed as before and anti-hulgG.Fc-HRP (Jackson ImmunoResearch (#109-036-098)) was added (1:10,000, 100 μl per well) and incubated for 1 hour at RT. Once secondary incubations were complete, plates were washed 6 times and TMB substrate (BD OptEIA #555214) was added (100 μl per well). The substrate-HRP reaction was stopped with 1M H3PO4 after ˜4 minutes. Plates were then read at 450/650. Data was represented as relative OD (OD₄₅₀/CD650).

[11] = target: T18, human IgE with the M1′ sequence (long …); assay: Scatchard, iodinated antibody on IgE/M1′ cells
[12] = target: T18, human IgE with the M1′ sequence (long …); assay: Scatchard Human M1' (nM), column Mean of exp. 2
Protocol: as §1

[13] = target: T19, human IgE CH3-CH4-M1′/Fc fusion protein; assay: SPR Biacore A100, M1′ immobilized
M1' peptide 13 = target: T4, M1' peptide 13; assay: ELISA on coated antigen, relative OD450/650
Protocol: as §3

M1' peptide 15 = target: T5, M1' peptide 15; assay: ELISA on coated antigen, relative OD450/650
Protocol: as §3

M1' peptide 2 = target: T6, M1' peptide 2; assay: ELISA on coated antigen, relative OD450/650
Protocol: as §3

M1′ peptide 7 = target: T7, M1′ peptide 7; assay: ELISA on coated antigen, relative OD450/650
Protocol: as §3

M1' peptide 11 = target: T8, M1' peptide 11; assay: ELISA on coated antigen, relative OD450/650
Protocol: as §3

M1' peptide 14 = target: T9, M1' peptide 14; assay: ELISA on coated antigen, relative OD450/650
Protocol: as §3

M1′ peptide 5 = target: T10, M1′ peptide 5; assay: ELISA on coated antigen, relative OD450/650
Protocol: as §3

M1' peptide 6 = target: T11, M1' peptide 6; assay: ELISA on coated antigen, relative OD450/650
Protocol: as §3

M1' peptide 12 = target: T12, M1' peptide 12; assay: ELISA on coated antigen, relative OD450/650
Protocol: as §3

M1' peptide 1 = target: T13, M1' peptide 1; assay: ELISA on coated antigen, relative OD450/650
Protocol: as §3

M1' peptide 9 = target: T14, M1' peptide 9; assay: ELISA on coated antigen, relative OD450/650
Protocol: as §3

M1′ peptide 8 = target: T15, M1′ peptide 8; assay: ELISA on coated antigen, relative OD450/650
Protocol: as §3

M1' peptide 10 = target: T16, M1' peptide 10; assay: ELISA on coated antigen, relative OD450/650
Protocol: as §3

M1' peptide 3 = target: T17, M1' peptide 3; assay: ELISA on coated antigen, relative OD450/650
Protocol: as §3

[14] = target: T18, human IgE with the M1′ sequence (long …); assay: Scatchard Human M1' (nM), column Measured; iodinated antibody on cells expressing human IgE/M1'
Protocol: as §1

[15] = target: T18, human IgE with the M1′ sequence (long …); assay: Scatchard Human M1' (nM), column Mean of exp. 1
Protocol: as §2, with “Iodinated antibody of a single concentration was added to all dilutions of the competitor unlabelled antibody. Lastly 250,000 BJAB-Long cells were added to each mixture of iodinated and unlabelled antibody. The samples were incubated at 4° C. for 4 hours, shaking.” left out
The BJAB or Daudi cells expressing various forms of IgE with or without M1′ (Human, Rhesus, Cyno) were prepared for binding in cold Binding buffer composed of base media, with 10 mM HEPES pH 7.4, and 2% FBS as well as 40 ug/ml human IgG. […] Each sample is then collected and filtered on membrane, washed at least 3 times with binding buffer, allowed to dry and then counted for 1 minute using Perkin Elmer Wizard 1470 Auto Gamma Counter.

[16] = target: T18, human IgE with the M1′ sequence (long …); assay: Scatchard Human M1' (nM), overall Mean of two experiments
Protocol: as §1

T19 sequence (chain, as listed by the source limits assumed): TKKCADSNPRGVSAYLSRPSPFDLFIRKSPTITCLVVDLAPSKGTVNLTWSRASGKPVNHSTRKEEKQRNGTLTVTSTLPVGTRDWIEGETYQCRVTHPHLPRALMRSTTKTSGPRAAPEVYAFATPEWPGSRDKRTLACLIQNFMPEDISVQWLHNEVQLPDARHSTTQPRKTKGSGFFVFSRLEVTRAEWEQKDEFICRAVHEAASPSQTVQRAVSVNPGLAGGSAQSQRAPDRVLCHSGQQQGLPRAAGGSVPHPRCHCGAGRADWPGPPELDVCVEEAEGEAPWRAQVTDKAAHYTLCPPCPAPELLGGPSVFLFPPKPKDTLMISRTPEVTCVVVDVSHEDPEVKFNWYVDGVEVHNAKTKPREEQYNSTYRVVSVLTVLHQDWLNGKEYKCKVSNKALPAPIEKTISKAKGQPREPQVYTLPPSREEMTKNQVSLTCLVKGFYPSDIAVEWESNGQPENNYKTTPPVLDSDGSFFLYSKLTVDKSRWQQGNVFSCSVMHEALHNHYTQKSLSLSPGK
T18 sequence (P01854 116-546 I515L limits assumed): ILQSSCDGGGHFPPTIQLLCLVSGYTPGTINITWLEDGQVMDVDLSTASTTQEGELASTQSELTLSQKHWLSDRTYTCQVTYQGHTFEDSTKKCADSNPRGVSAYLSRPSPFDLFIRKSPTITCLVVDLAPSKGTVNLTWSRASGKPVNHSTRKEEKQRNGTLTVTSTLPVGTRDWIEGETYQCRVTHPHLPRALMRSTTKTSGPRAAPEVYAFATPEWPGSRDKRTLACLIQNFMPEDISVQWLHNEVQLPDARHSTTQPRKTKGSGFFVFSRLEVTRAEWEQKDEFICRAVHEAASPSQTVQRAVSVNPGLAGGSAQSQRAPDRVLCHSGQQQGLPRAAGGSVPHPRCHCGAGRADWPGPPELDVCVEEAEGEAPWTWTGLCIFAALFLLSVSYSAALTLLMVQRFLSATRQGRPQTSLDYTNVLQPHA

Kd [1]	Kd [3]	IC50 [4]	Kd [6]	Kd [7]	IC50 [9]	Kd [10]	binding result (M1′ peptide 4)	Kd [11]	Kd [12]	Kd [13]	binding result (M1′ peptide 7)	binding result (M1′ peptide 8)	Binder	also measured
0.79 nM	0.97 nM	57 nM	0.77 nM	1.5 nM	62 nM	12 nM	binds	0.4 nM	0.54 nM	5.6 nM	–	–	murine anti-IgE/M1′ antibody 47H4 (antibody, V domains shown, mIgG1 hybridoma antibody; also called mu47H4; 47H4 mIgG1) VH: EVKLVESGGGLVQPGGSRKLSCAASGFTFSDYGMAWVRQAPGKGPEWVAFISDLAYTIYYADTVTGRFTISRENAKNTLYLEMSSLRSEDTALYYCARDNWDAMDYWGQGTSVTVSS VL: DIVLTQTPLSLPVSLGDQASISCRSSQSLVHNNGNTYLHWYLQKPGQSPKLLIYKVSNRFSGVPDRFSGSGSGTDFTLKISRLEAEDLGVYFCSQNTLVPWTFGGGTKVEIKR	Kd [2]: 0.39 nM; Kd [5]: 0.39 nM; Kd [8]: 0.57 nM
1.5 nM	2.5 nM	60 nM	1.3 nM	–	–	23 nM	binds	–	–	–	no binding	no binding	humanized anti-IgE/M1′ antibody 47H4.v5 (antibody, V domains shown, huIgG1; also called 47H4v5 huIgG1; 47H5 v.5) VH: EVQLVESGGGLVQPGGSLRLSCAASGFTFSDYGIAWVRQAPGKGLEWVAFISDLAYTIYYADTVTGRFTISRDNSKNTLYLQMNSLRAEDTAVYYCARDNWDAMDYWGQGTLVTVSS VL: DIQMTQSPSSLSASVGDRVTITCRSSQSLVHNNANTYLHWYQQKPGKAPKLLIYKVSNRFSGVPSRFSGSGSGTDFTLTISSLQPEDFATYYCSQNTLVPWTFGQGTKVEIKR	binding result (M1' peptide 13): no binding; binding result (M1' peptide 15): no binding; binding result (M1' peptide 2): no binding; binding result (M1' peptide 11): no binding; binding result (M1' peptide 14): no binding; binding result (M1′ peptide 5): no binding; binding result (M1' peptide 6): no binding; binding result (M1' peptide 12): no binding; binding result (M1' peptide 1): no binding; binding result (M1' peptide 9): no binding; binding result (M1' peptide 10): no binding; binding result (M1' peptide 3): no binding
2.3 nM	–	–	–	5.1 nM	12 nM	–	–	1.6 nM	1.75 nM	0.3 nM	binds	binds	murine anti-IgE/M1′ antibody 26A11 (antibody, V domains shown, mIgG1 hybridoma antibody; also called mu26A11; 26A11 mIgG1) VH: EVQLQQSGPELVKPGASVKMSCKASGYTFTDYYMMWVKQSHGKSLEWIGDINPNNYDTSYNQKFKGKATLTVDKSSSTAYIQLNSLTSEDSAVYYCASKAYWGQGTLVTVSA VL: DIQMTQTTSSLSASLGDRVTITCRSSQDISNSLNWYQQKPDGPVKLLIYSTSRLHSGVPSRFSGSGSGTDYSLTISNLEQEDLATYFCQQGHTLPWTFGGGTKVEIKR	Kd [14]: 1.68 nM and 2.59 nM and 1.2 nM; Kd [15]: 2.14 nM; Kd [16]: 1.94 nM
